Target: human hair (hair keratin) (human)
Assay: quantitative hair binding assay, peroxidase coupled via the His tag, TMB

absorption at 405 nm: 0.65 A405 nm
B1: KBD-B (keratin-binding domain B of human desmoplakin), His-tagged, expressed from pQE30-KBD-B (SEQ ID No.: 166) (protein)
chain: MRGSHHHHHHGSACELEPHTGLLLLSVQKRSMSFQGIRQPVTVTELVDSGILRPSTVNELESGQISYDEVGERIKDFLQGSSCIAGIYNETTKQKLGIYEAMKIGLVRPGTALELLEAQAATGFIVDPVSNLRLPVEEAYKRGLVGIEFKEKLLSAERAVTGYNDPETGNIISLFQAMNKELIEKGHGIRLLEAQIATGGIIDPKESHRLPVDIAYKRGYFNEELSEILSDPSDDTKGFFDPNTEENLTYLQLKERCIKDEETGLCLLPLKEKKKQVQTSQKNTLRKRRVVIVDPETNKEMSVQEGVDLQPSLIS

Reference: patent publication US20090099075A1
